Positions count from the first letter of the chain named.

Series [1] deals with the molecule itself. The series can be described thus: SDS-PAGE with and without 2-mercaptoethanol; band at about 25 kDa without reducing agent. The protocol:
The HPLC-purified recombinant human CD83ext protein (cloning and expression as described in example 1, purification as described in example 2 was analysed with the Laemmli SDS-PAGE system. To identify possible oligomeric forms of CD83 2-mercaptoethanol (ME) has been omitted from the sample buffer (2% SDS, 5% 2-Mercaptoethanol (ME), 10% Glycerol, 0.2 mM EDTA, 0.005% bromphenolblue, 62.5 mM Tris pH6.8). In the absence of this reducing agent, the intra- and interchain disulfide bonds of CD83 remain intact. The reduced and non-reduced protein samples were both incubated for 5 min at 95° C. and compared with each other by SDS-PAGE (see FIG. 7). During electrophoresis, the mobilities of oligomeric SDS-proteins is lower than those of their fully denatured SDS-polypeptide components. Without ME an upper band appears at the estimated size of a CD83-dimer (about 25 kDa), while the monomeric CD83 band (about 14 kDa) is fainting. Westernblot analysis using the anti-CD83 antibody CD83-1G11 (Lechmann et al., Protein Expression and Purification 24:445-452 (Mar. 2, 2002)) confirmed the specificity of the protein bands. Thus, hCD83ext is a disulfide-linked homodimeric protein.

Series [2] deals with the molecule itself. In words: SDS-PAGE with and without 2-mercaptoethanol. An excerpt: The purified hCD83ext_mut129_Cys to Ser was compared to purified hCD83ext by SDS-PAGE (see FIG. 9). […] Under non-reducing conditions no CD83-dimer could be detected with the mutant CD83 protein. So the 5th carboxyterminal cysteine of the extracellular CD83 domain is necessary for the creation of homodimers. Westernblot analysis confirmed specificity of the bands (data not shown).

B1: recombinant human CD83ext protein (soluble extracellular domain of human CD83) (receptor)
chain: GSPGTPEVKVACSEDVDLPCTAPWDPQVPYTVSWVKLLEGGEERMETPQEDHLRGQHYHQKGQNGSFDAPNERPYSLKIRNTTSCNSGTYRCTLQDPDGQRNLSGKVILRVTGCPAQRKEETFKKYRAEI
notes: Expressed in E. coli as a GST fusion and cleaved with thrombin; also called hCD83ext; soluble CD83
For B1, in series [1], the binding result is “binds”.

B2: hCD83ext_mut129_Cys to Ser (receptor)
chain: B1 chain with C114S
notes: Expressed in E. coli as a GST fusion and cleaved with thrombin; Monomeric; also called hCD83ext mut129 Cys to Ser mutant
Turning to B2, the binding result in series [2] is on record as “no binding”.

The record behind these values is US20120015890A1 (ARGOS THERAPEUTICS, published 2012).
